{"source": "patent US20020058247A1", "about": "(TRIPEP, published 2002)", "key": {"[1]": {"target": "T1, truncated recombinant form of HBeAg containing nine residues of pre-core and the 150 first residues of HBcAg (hepatitis B virus, UniProt P03146 1-150)", "T1 construct": "domain: nine residues of pre-core;range 1-150; also called hepatitis B virus e antigen", "T1 sequence (P03146 1-150)": "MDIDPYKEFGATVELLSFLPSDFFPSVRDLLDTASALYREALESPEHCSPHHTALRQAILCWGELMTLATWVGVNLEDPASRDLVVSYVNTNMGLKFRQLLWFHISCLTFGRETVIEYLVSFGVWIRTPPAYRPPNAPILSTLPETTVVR", "test": "EIA, HBeAg on solid phase, fusion peptide 20 ug/well, gG2 mAb detection"}, "[2]": {"target": "T1, truncated recombinant form of HBeAg …", "test": "EIA, support-bound peptide, HBeAg 0.67 ug/ml"}, "[3]": {"target": "T1, truncated recombinant form of HBeAg …", "test": "EIA, support-bound peptide, HBeAg 20 ug/ml"}, "[4]": {"target": "T2, Full length recombinant HBcAg (rHBcAg) encompassing residues 1-183 (hepatitis B virus, UniProt P03146 1-183)", "T2 construct": "range 1-183; also called hepatitis B virus core antigen", "T2 sequence (P03146 whole entry, the tested form may be a part)": "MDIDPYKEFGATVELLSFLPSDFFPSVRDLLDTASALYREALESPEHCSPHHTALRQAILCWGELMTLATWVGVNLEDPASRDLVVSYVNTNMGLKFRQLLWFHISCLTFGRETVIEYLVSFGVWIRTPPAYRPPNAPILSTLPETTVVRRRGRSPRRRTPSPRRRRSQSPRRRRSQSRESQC", "test": "EIA, support-bound peptide, HBcAg 5 ug/ml"}, "[5]": {"target": "T2, Full length recombinant HBcAg (rHBcAg) …", "test": "EIA, peptide coated 25 ug/ml, HBcAg 10 ug/ml"}, "[6]": {"target": "T2, Full length recombinant HBcAg (rHBcAg) …", "test": "EIA, support-bound peptide, HBcAg 0.67 ug/ml"}, "[7]": {"target": "T2, Full length recombinant HBcAg (rHBcAg) …", "test": "EIA, support-bound peptide, HBcAg 1.25 ug/ml"}, "[8]": {"target": "T2, Full length recombinant HBcAg (rHBcAg) …", "test": "EIA, support-bound peptide, HBcAg 2.5 ug/ml"}, "[9]": {"target": "T3, non-structural 3 protein (NS3) of the hepatitis C virus (HCV) (hepatitis C virus)", "T3 construct": "Control antigen; also called HCV NS3", "test": "EIA, support-bound peptide, HCV NS3 control"}, "[10]": {"target": "T1, truncated recombinant form of HBeAg …", "test": "EIA, support-bound peptide, HBeAg 5 ug/ml"}, "[11]": {"target": "T1, truncated recombinant form of HBeAg …", "test": "EIA, support-bound peptide, HBeAg 10 ug/ml"}, "[12]": {"target": "T2, Full length recombinant HBcAg (rHBcAg) …", "test": "EIA, peptide coated 100 ug/ml, HBcAg 10 ug/ml"}, "[13]": {"target": "T2, Full length recombinant HBcAg (rHBcAg) …", "test": "EIA, support-bound peptide, HBcAg 2 ug/well"}, "[14]": {"target": "T2, Full length recombinant HBcAg (rHBcAg) …", "test": "EIA, peptide coated 12.5 ug/ml, HBcAg 10 ug/ml"}, "[15]": {"target": "T1, truncated recombinant form of HBeAg …", "test": "EIA, support-bound peptide, HBeAg 2.5 ug/ml"}, "[16]": {"target": "T2, Full length recombinant HBcAg (rHBcAg) …", "test": "EIA, support-bound peptide, HBcAg 10 ug/ml"}, "[17]": {"target": "T2, Full length recombinant HBcAg (rHBcAg) …", "test": "EIA, support-bound peptide, HBcAg 0.2 ug/well"}, "[18]": {"target": "T2, Full length recombinant HBcAg (rHBcAg) …", "test": "EIA, peptide coated 6.25 ug/ml, HBcAg 10 ug/ml"}, "[19]": {"target": "T2, Full length recombinant HBcAg (rHBcAg) …", "test": "EIA, peptide coated 3.125 ug/ml, HBcAg 10 ug/ml"}, "[20]": {"target": "T1, truncated recombinant form of HBeAg …", "test": "EIA, support-bound peptide, HBeAg 1.25 ug/ml"}, "[21]": {"target": "T2, Full length recombinant HBcAg (rHBcAg) …", "test": "EIA, support-bound peptide, HBcAg 20 ug/ml"}, "[22]": {"target": "T2, Full length recombinant HBcAg (rHBcAg) …", "test": "EIA, peptide coated 50 ug/ml, HBcAg 10 ug/ml"}, "[23]": {"target": "T2, Full length recombinant HBcAg (rHBcAg) …", "test": "competition EIA, HBcAg coated 1 ug/ml, peptide 100 ug/ml before mAb 4-2 (competitor); OD of bound mAb"}, "[24]": {"target": "T2, Full length recombinant HBcAg (rHBcAg) …", "test": "competition EIA, HBcAg coated 5 ug/ml, peptide 25 ug/ml together with mAb 4-2 (competitor); OD of bound mAb"}, "[25]": {"target": "T2, Full length recombinant HBcAg (rHBcAg) …", "test": "competition EIA, HBcAg coated 5 ug/ml, peptide 200 ug/ml together with mAb 4-2 (competitor); OD of bound mAb"}, "[26]": {"target": "T2, Full length recombinant HBcAg (rHBcAg) …", "test": "competition EIA, HBcAg coated 5 ug/ml, peptide 100 ug/ml together with mAb 4-2 (competitor); OD of bound mAb"}, "[27]": {"target": "T2, Full length recombinant HBcAg (rHBcAg) …", "test": "competition EIA, HBcAg coated 1 ug/ml, peptide 200 ug/ml before mAb 4-2 (competitor); OD of bound mAb"}, "[28]": {"target": "T2, Full length recombinant HBcAg (rHBcAg) …", "test": "competition EIA, HBcAg coated 1 ug/ml, peptide 12.5 ug/ml before mAb 4-2 (competitor); OD of bound mAb"}, "[29]": {"target": "T2, Full length recombinant HBcAg (rHBcAg) …", "test": "competition EIA, HBcAg coated 5 ug/ml, peptide 12.5 ug/ml together with mAb 4-2 (competitor); OD of bound mAb"}, "[30]": {"target": "T2, Full length recombinant HBcAg (rHBcAg) …", "test": "competition EIA, HBcAg coated 5 ug/ml, peptide 50 ug/ml together with mAb 4-2 (competitor); OD of bound mAb"}, "[31]": {"target": "T2, Full length recombinant HBcAg (rHBcAg) …", "test": "competition EIA, HBcAg coated 1 ug/ml, peptide 50 ug/ml before mAb 4-2 (competitor); OD of bound mAb"}, "[32]": {"target": "T2, Full length recombinant HBcAg (rHBcAg) …", "test": "competition EIA, HBcAg coated 5 ug/ml, peptide 6.25 ug/ml together with mAb 4-2 (competitor); OD of bound mAb"}, "[33]": {"target": "T2, Full length recombinant HBcAg (rHBcAg) …", "test": "competition EIA, HBcAg coated 1 ug/ml, peptide 6.25 ug/ml before mAb 4-2 (competitor); OD of bound mAb"}, "[34]": {"target": "T2, Full length recombinant HBcAg (rHBcAg) …", "test": "competition EIA, HBcAg coated 1 ug/ml, peptide 25 ug/ml before mAb 4-2 (competitor); OD of bound mAb"}, "[35]": {"target": "serum HBeAg in HBeAg-transgenic mice (hepatitis B virus)", "sequence (P0C573 20-183)": "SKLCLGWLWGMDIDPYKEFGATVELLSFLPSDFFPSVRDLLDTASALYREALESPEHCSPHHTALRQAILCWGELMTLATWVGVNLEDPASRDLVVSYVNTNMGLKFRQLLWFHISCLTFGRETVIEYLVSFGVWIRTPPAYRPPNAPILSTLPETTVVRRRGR", "test": "cell-based or functional assay"}}, "data": [{"binder": "VKLSCKASGYIFTSEHRGGPE (also called fusion peptide)", "note": "[VKLSCKASGYIFTSEHRGGPE (SEQ. ID. No. 73)]", "values": [{"measurement": "gG2 mAb binding (OD)", "setting": "[1]", "value": 0.029, "unit": "OD"}]}, {"binder": "YNMNWVKQSHGKSLEWIGNI (also called Peptide # 27)", "note": "[YNMNWVKQSHGKSLEWIGNI (SEQ. ID. No. 30)]", "values": [{"measurement": "OD", "setting": "[2]", "value": 0.018, "unit": "OD"}, {"measurement": "OD", "setting": "[3]", "value": 0.04, "unit": "OD"}, {"measurement": "OD", "setting": "[4]", "value": 0.059, "unit": "OD"}, {"measurement": "OD", "setting": "[5]", "value": 0.162, "unit": "OD"}, {"measurement": "OD", "setting": "[6]", "value": 0.02, "unit": "OD"}, {"measurement": "OD", "setting": "[7]", "value": 0.026, "unit": "OD"}, {"measurement": "OD", "setting": "[8]", "value": 0.042, "unit": "OD"}, {"measurement": "OD at 405 nm", "setting": "[9]", "value": 0.021, "unit": "OD"}, {"measurement": "OD", "setting": "[10]", "value": 0.029, "unit": "OD"}, {"measurement": "OD", "setting": "[11]", "value": 0.037, "unit": "OD"}, {"measurement": "OD", "setting": "[12]", "value": 0.151, "unit": "OD"}, {"measurement": "OD at 405 nm", "setting": "[13]", "value": 0.157, "unit": "OD"}, {"measurement": "OD", "setting": "[14]", "value": 0.181, "unit": "OD"}, {"measurement": "OD", "setting": "[15]", "value": 0.032, "unit": "OD"}, {"measurement": "OD", "setting": "[16]", "value": 0.115, "unit": "OD"}, {"measurement": "OD at 405 nm", "setting": "[17]", "value": 0.114, "unit": "OD"}, {"measurement": "OD", "setting": "[18]", "value": 0.175, "unit": "OD"}, {"measurement": "OD", "setting": "[19]", "value": 0.168, "unit": "OD"}, {"measurement": "OD", "setting": "[20]", "value": 0.021, "unit": "OD"}, {"measurement": "OD", "setting": "[21]", "value": 0.305, "unit": "OD"}, {"measurement": "OD", "setting": "[22]", "value": 0.17, "unit": "OD"}]}, {"binder": "VKLSCKASGYIFTSGGPEEFE (also called fusion peptide)", "note": "[VKLSCKASGYIFTSGGPEEFE (SEQ. ID. No. 76)]", "values": [{"measurement": "gG2 mAb binding (OD)", "setting": "[1]", "value": 0.024, "unit": "OD"}]}, {"binder": "KLSCKASGYIFTSEHRGGPEE (also called fusion peptide)", "note": "[KLSCKASGYIFTSEHRGGPEE (SEQ. ID. No. 70)]", "values": [{"measurement": "gG2 mAb binding (OD)", "setting": "[1]", "value": 0.022, "unit": "OD"}]}, {"binder": "KLSCKASGYIFTSRGGPEEFE (also called fusion peptide)", "note": "[KLSCKASGYIFTSRGGPEEFE (SEQ. ID. No. 72)]", "values": [{"measurement": "gG2 mAb binding (OD)", "setting": "[1]", "value": 0.04, "unit": "OD"}]}, {"binder": "KLSCKASGYIFTSHRGGPEEF (also called fusion peptide)", "note": "[KLSCKASGYIFTSHRGGPEEF (SEQ. ID. No. 71)]", "values": [{"measurement": "gG2 mAb binding (OD)", "setting": "[1]", "value": 0.638, "unit": "OD"}]}, {"binder": "QQKPGQPPKLLIKYASNLES", "note": "[QQKPGQPPKLLIKYASNLES (SEQ. ID. No. 19)]", "values": [{"measurement": "OD at 490 nm", "setting": "[23]", "value": 0.394, "unit": "OD"}, {"measurement": "OD at 490 nm", "setting": "[24]", "value": 1.24, "unit": "OD"}, {"measurement": "OD at 490 nm", "setting": "[25]", "value": 0.925, "unit": "OD"}, {"measurement": "OD at 490 nm", "setting": "[26]", "value": 1.11, "unit": "OD"}, {"measurement": "OD at 490 nm", "setting": "[27]", "value": 0.368, "unit": "OD"}, {"measurement": "OD at 490 nm", "setting": "[28]", "value": 0.391, "unit": "OD"}, {"measurement": "OD at 405 nm", "setting": "[9]", "value": 0.016, "unit": "OD"}, {"measurement": "OD at 405 nm", "setting": "[13]", "value": 0.299, "unit": "OD"}, {"measurement": "OD at 490 nm", "setting": "[29]", "value": 1.24, "unit": "OD"}, {"measurement": "OD at 405 nm", "setting": "[17]", "value": 0.064, "unit": "OD"}, {"measurement": "OD at 490 nm", "setting": "[30]", "value": 1.23, "unit": "OD"}, {"measurement": "OD at 490 nm", "setting": "[31]", "value": 0.383, "unit": "OD"}, {"measurement": "OD at 490 nm", "setting": "[32]", "value": 1.06, "unit": "OD"}, {"measurement": "OD at 490 nm", "setting": "[33]", "value": 0.336, "unit": "OD"}, {"measurement": "OD at 490 nm", "setting": "[34]", "value": 0.406, "unit": "OD"}]}, {"binder": "VKLSCKASGYIFTSHRGGPEE", "note": "[VKLSCKASGYIFTSHRGGPEE (SEQ. ID. No. 74)]", "values": [{"measurement": "Fold change in serum HBeAg levels by EIA in HBeAg-Tg mice, day 0", "setting": "[35]", "value": 1, "unit": "fold"}, {"measurement": "Fold change in serum HBeAg levels by EIA in HBeAg-Tg mice, day 1", "setting": "[35]", "value": 1.5, "unit": "fold"}, {"measurement": "Fold change in serum HBeAg levels by EIA in HBeAg-Tg mice, day 3", "setting": "[35]", "value": 2.3, "unit": "fold"}, {"measurement": "Fold change in serum HBeAg levels by EIA in HBeAg-Tg mice, day 6", "setting": "[35]", "value": 2.3, "unit": "fold"}, {"measurement": "Fold change in serum HBeAg levels by EIA in HBeAg-Tg mice, day 9", "setting": "[35]", "value": 3.3, "unit": "fold"}, {"measurement": "gG2 mAb binding (OD)", "setting": "[1]", "value": 1.73, "unit": "OD"}]}]}
